B1: C9orf25 (parent)
chain: LARKGSLKNGSMGSPVNQQPKKNN

Variants of: B1
Test: protein stability index of a GFP-peptide fusion (GPS, HEK-293T) (PSI 1-6); higher = more stable
Settings: c terminus: a fixed tail appended
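Note: lentivirally expressed fusions sorted by FACS into six bins by GFP to DsRed ratio, PSI derived from sequencing read proportions per bin multiplied by bin number.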

| Variant | protein stability index |
| --- | --- |
| LARKGALKNGSMGSPVNQQPKKNN [S6A] | 4.33 |
| MARKGSLKNGSMGSPVNQQPKKNN [L1M] | 4.89 |
| VARKGSLKNGSMGSPVNQQPKKNN [L1V] | 4.92 |
| YARKGSLKNGSMGSPVNQQPKKNN [L1Y] | 3.77 |
| PARKGSLKNGSMGSPVNQQPKKNN [L1P] | 4.76 |
| AARKGSLKNGSMGSPVNQQPKKNN [L1A] | 5.34 |
| RARKGSLKNGSMGSPVNQQPKKNN [L1R] | 4.81 |
| GARKGSLKNGSMGSPVNQQPKKNN [L1G] | 5.15 |
| IARKGSLKNGSMGSPVNQQPKKNN [L1I] | 4.66 |
| QARKGSLKNGSMGSPVNQQPKKNN [L1Q] | 4.85 |
| SARKGSLKNGSMGSPVNQQPKKNN [L1S] | 5.53 |
| WARKGSLKNGSMGSPVNQQPKKNN [L1W] | 4.3 |
| CARKGSLKNGSMGSPVNQQPKKNN [L1C] | 4.32 |
| EARKGSLKNGSMGSPVNQQPKKNN [L1E] | 5.35 |
| KARKGSLKNGSMGSPVNQQPKKNN [L1K] | 4.76 |
| FARKGSLKNGSMGSPVNQQPKKNN [L1F] | 3.96 |
| NARKGSLKNGSMGSPVNQQPKKNN [L1N] | 5.07 |
| TARKGSLKNGSMGSPVNQQPKKNN [L1T] | 4.31 |
| HARKGSLKNGSMGSPVNQQPKKNN [L1H] | 4.95 |
| DARKGSLKNGSMGSPVNQQPKKNN [L1D] | 5.07 |
| LHRKGSLKNGSMGSPVNQQPKKNN [A2H] | 4.77 |
| LNRKGSLKNGSMGSPVNQQPKKNN [A2N] | 4.59 |
| LGRKGSLKNGSMGSPVNQQPKKNN [A2G] | 4.76 |
| LPRKGSLKNGSMGSPVNQQPKKNN [A2P] | 5.21 |

| Variant | protein stability index |
| --- | --- |
| LFRKGSLKNGSMGSPVNQQPKKNN [A2F] | 4.04 |
| LCRKGSLKNGSMGSPVNQQPKKNN [A2C] | 4.12 |
| LWRKGSLKNGSMGSPVNQQPKKNN [A2W] | 4.03 |
| LYRKGSLKNGSMGSPVNQQPKKNN [A2Y] | 4.24 |
| LQRKGSLKNGSMGSPVNQQPKKNN [A2Q] | 4.63 |
| LTRKGSLKNGSMGSPVNQQPKKNN [A2T] | 4.54 |
| LDRKGSLKNGSMGSPVNQQPKKNN [A2D] | 4.87 |
| LLRKGSLKNGSMGSPVNQQPKKNN [A2L] | 4.58 |
| LIRKGSLKNGSMGSPVNQQPKKNN [A2I] | 4.37 |
| LRRKGSLKNGSMGSPVNQQPKKNN [A2R] | 3.68 |
| LVRKGSLKNGSMGSPVNQQPKKNN [A2V] | 4.07 |
| LERKGSLKNGSMGSPVNQQPKKNN [A2E] | 5.09 |
| LKRKGSLKNGSMGSPVNQQPKKNN [A2K] | 4.13 |
| LMRKGSLKNGSMGSPVNQQPKKNN [A2M] | 4.9 |
| LSRKGSLKNGSMGSPVNQQPKKNN [A2S] | 4.72 |
| LARCGSLKNGSMGSPVNQQPKKNN [K4C] | 4.74 |
| LARMGSLKNGSMGSPVNQQPKKNN [K4M] | 4.62 |
| LARYGSLKNGSMGSPVNQQPKKNN [K4Y] | 4.13 |
| LAREGSLKNGSMGSPVNQQPKKNN [K4E] | 4.91 |
| LARNGSLKNGSMGSPVNQQPKKNN [K4N] | 4.25 |
| LARHGSLKNGSMGSPVNQQPKKNN [K4H] | 4.68 |
| LARTGSLKNGSMGSPVNQQPKKNN [K4T] | 5 |
| LARLGSLKNGSMGSPVNQQPKKNN [K4L] | 4.23 |
| LARVGSLKNGSMGSPVNQQPKKNN [K4V] | 4.42 |

| Variant | protein stability index |
| --- | --- |
| LARWGSLKNGSMGSPVNQQPKKNN [K4W] | 4.15 |
| LARSGSLKNGSMGSPVNQQPKKNN [K4S] | 4.68 |
| LARPGSLKNGSMGSPVNQQPKKNN [K4P] | 4.92 |
| LARGGSLKNGSMGSPVNQQPKKNN [K4G] | 5.17 |
| LARRGSLKNGSMGSPVNQQPKKNN [K4R] | 3.74 |
| LARAGSLKNGSMGSPVNQQPKKNN [K4A] | 4.74 |
| LARDGSLKNGSMGSPVNQQPKKNN [K4D] | 4.88 |
| LARFGSLKNGSMGSPVNQQPKKNN [K4F] | 5.08 |
| LARIGSLKNGSMGSPVNQQPKKNN [K4I] | 3.71 |
| LARQGSLKNGSMGSPVNQQPKKNN [K4Q] | 3.95 |
| LAMKGSLKNGSMGSPVNQQPKKNN [R3M] | 4.85 |
| LALKGSLKNGSMGSPVNQQPKKNN [R3L] | 4.41 |
| LAYKGSLKNGSMGSPVNQQPKKNN [R3Y] | 4.73 |
| LAVKGSLKNGSMGSPVNQQPKKNN [R3V] | 4.85 |
| LAHKGSLKNGSMGSPVNQQPKKNN [R3H] | 4.85 |
| LAWKGSLKNGSMGSPVNQQPKKNN [R3W] | 4.14 |
| LAAKGSLKNGSMGSPVNQQPKKNN [R3A] | 5.05 |
| LADKGSLKNGSMGSPVNQQPKKNN [R3D] | 5.2 |
| LAIKGSLKNGSMGSPVNQQPKKNN [R3I] | 4.58 |
| LANKGSLKNGSMGSPVNQQPKKNN [R3N] | 4.96 |
| LASKGSLKNGSMGSPVNQQPKKNN [R3S] | 4.67 |
| LACKGSLKNGSMGSPVNQQPKKNN [R3C] | 4.85 |
| LAFKGSLKNGSMGSPVNQQPKKNN [R3F] | 4.54 |
| LAPKGSLKNGSMGSPVNQQPKKNN [R3P] | 5.03 |

| Variant | protein stability index |
| --- | --- |
| LAGKGSLKNGSMGSPVNQQPKKNN [R3G] | 5.02 |
| LAQKGSLKNGSMGSPVNQQPKKNN [R3Q] | 4.99 |
| LAEKGSLKNGSMGSPVNQQPKKNN [R3E] | 4.69 |
| LATKGSLKNGSMGSPVNQQPKKNN [R3T] | 4.85 |
| LAKKGSLKNGSMGSPVNQQPKKNN [R3K] | 4.33 |
| LARKCSLKNGSMGSPVNQQPKKNN [G5C] | 4.29 |
| LARKVSLKNGSMGSPVNQQPKKNN [G5V] | 4.26 |
| LARKRSLKNGSMGSPVNQQPKKNN [G5R] | 4.34 |
| LARKTSLKNGSMGSPVNQQPKKNN [G5T] | 4.53 |
| LARKQSLKNGSMGSPVNQQPKKNN [G5Q] | 4.6 |
| LARKYSLKNGSMGSPVNQQPKKNN [G5Y] | 3.27 |
| LARKFSLKNGSMGSPVNQQPKKNN [G5F] | 4 |
| LARKWSLKNGSMGSPVNQQPKKNN [G5W] | 4.06 |
| LARKNSLKNGSMGSPVNQQPKKNN [G5N] | 4.07 |
| LARKLSLKNGSMGSPVNQQPKKNN [G5L] | 3.55 |
| LARKESLKNGSMGSPVNQQPKKNN [G5E] | 4.82 |
| LARKHSLKNGSMGSPVNQQPKKNN [G5H] | 4.49 |
| LARKASLKNGSMGSPVNQQPKKNN [G5A] | 4.5 |
| LARKMSLKNGSMGSPVNQQPKKNN [G5M] | 4.06 |
| LARKSSLKNGSMGSPVNQQPKKNN [G5S] | 4.8 |
| LARKDSLKNGSMGSPVNQQPKKNN [G5D] | 4.58 |
| LARKKSLKNGSMGSPVNQQPKKNN [G5K] | 5.05 |

— the supplement of paper PMC10567573
